T1: Gαs363–380 (UniProt P63092-2 363-380)
T1 construct: Gαs, C-terminal 18 residues 363-380; the numbers fit the 380-residue short form; also called peptide comprised of the C-terminal 18 residues of Gαs; Gαs C-terminal peptide
T1 peptide (looked up): Biotin-NDCRDIIQRMHLRQYELL

T2: GB1-Gαt340–350 (UniProt P04695 340-350)
T2 construct: transducin-α (Gαt, Gαt1), the 11 C-terminal residues 340-350; Cloned into a modified pQE30 vector containing the GB1 tag; also called 11 C-terminal residues of Gαt fused to the B1 domain of Streptococcal protein G; source: E. coli BL21(DE3); purification not described
T2 chain (looked up): IKENLKDCGLF

T3: MBP-Gαt327–350 (UniProt P04695 327-350)
T3 construct: In pET15b; also called 24 C-terminal residues of Gαt fused to MBP; tagged C-terminal fragment of Gα; source: E. coli BL21(DE3), purified (Ni-NTA, SEC); not shown: MBP (E. coli MBP28–394 with D110A/K111A/E200A/N201A/A243H/K247H/K267A, joined by an AAAH linker), N-terminal, kept
T3 chain (looked up): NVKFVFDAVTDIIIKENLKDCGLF

B1: bovine Ric8A1–492 (domain or fragment, UniProt Q5E9J8 1-492, looked up)
chain: MEPRAVADALETGEEDVVMEALRAYNRENSQSFTFDDAQQEDRKRLAKLLVSVLEQGLPPSRRVIWLQSIRILSRDRSCLDSFTSRRSLQALACYAGISASQGSVPEPLNMDVVLESLKCLCNLVLSSPVAQALAAEAGLVVRLAERVGLCRQSSFPHDVQFFDLRLLFLLTALRTDVRQQLFQELQGVRLLTRALELTLGMTEGERHPELLPPQETERAMEILKVLFNITFDSIKREVDEEDAALYRHLGTLLRHCVMLAAAGDRTEELHGHAVNLLGNLPVKCLDVLLTLEPHEGSLEFLGVNMDVIRVLLSFMEKRLHQTHRLKESVAPVLSVLTECARMHRPARKFLKAQVLPPLRDVRTRPEVGELLRNKLVRLMTHLDTDVKRVAAEFLFVLCSESVPRFIKYTGYGNAAGLLAARGLMAGGRPEGQYSEDEDTDTDEYKEAKASINPVTGRVEEKPPNPMEGMTEEQKEHEAMKLVNMFDKLSRH
B2: Gαt333–350 (peptide, UniProt P04695 333-350, looked up)
peptide: Biotin-DAVTDIIIKENLKDCGLF
notes: also called 18-mer C-terminal peptide of Gαt; biotinylated Gαt333–350
B3: peptide C2 (peptide)
peptide: Biotin-NDCRDIIIRMNLRQCGLF
modifications: cysteine pairing not given here
notes: Gαs C-terminal 18-mer without its last four residues, with Q370I and H373N; the numbers fit the 380-residue short form; the four C-terminal residues of Gαt; Peptide C1 with two additional substitutions
B4: full-length Avi-tagged Gαt (natural protein)
chain: MGAGASAEEKHSRELEKKLKEDAEKDARTVKLLLLGAGESGKSTIVKQMKIIHQDGYSLEECLEFIAIIYGNTLQSILAIVRAMTTLNIQYGDSARQDDARKLMHMADTIEEGTMPKEMSDIIQRLWKDSGIQACFDRASEYQLNDSAGYYLSDLERLVTPGYVPTEQDVLRSRVKTTGIIETQFSFKDLNFRMFDVGGQRSERKKWIHCFEGVTAIIFCVALSDYDLVLAEDEEMNRMHESMKLFDSICNNKWFTDTSIILFLNKKDLFEEKIKKSPLTICYPEYAGSNTYEEAGNYIKVQFLELNMRRDVKEIYSHMTCATDTQNVKFVFDAVTDIIIKENLKDCGLF
modifications: biotin on the Avi tag (cells grown in media supplemented with biotin)
B5: peptide C1 (peptide)
peptide: Biotin-NDCRDIIQRMHLRQCGLF
modifications: cysteine pairing not given here
notes: Gαs C-terminal 18-mer without its last four residues; the numbers fit the 380-residue short form; the four C-terminal residues of Gαt; also called chimeric C-terminal peptide of Gαs ending in CGLF
B6: Avi-tagged I340Q/N343H mutant of Gαt (natural protein)
chain: B4 chain with I340Q, N343H
modifications: biotin on the Avi tag (cells grown in media supplemented with biotin)

What all share (conditions): both partners purified
One data set has as its target T1, Gαs363–380. Nature of the data set: BLI; N-terminally biotinylated Gα peptides on streptavidin biosensors, Ric8A proteins in solution; Octet RED96, 26 °C, 20 mM Tris, 150 mM KCl, 5% glycerol, 1 mM TCEP, 0.5 mg/ml BSA, pH 8.0; kinetic fit (1:1 model) and steady-state fit (one site).
The target in the next data set is T2, GB1-Gαt340–350. Nature of the data set: SEC; Ric8A1–492 mixed with GB1-Gαt340–350 or MBP-Gαt327–350; elution profiles. A general note: SEC sorts molecules by how far they enter the pores of the column.
Another data set addresses T3, MBP-Gαt327–350. The data set is described as above.
The target in the data set “Gαt333–350” is B2. In words: differential scanning fluorimetry; Ric8A constructs at 0.5 mg/ml with or without 50 µM peptide, Sypro Orange, 20 mM Tris-HCl pH 7.5, 150 mM KCl, 5% glycerol, 1 mM TCEP. Background: In DSF a fluorescence change marks the thermal transition of the protein.
The target of data set [1] is B1. In words: BLI; N-terminally biotinylated Gα peptides on streptavidin biosensors, Ric8A proteins in solution; Octet RED96, 26 °C, 20 mM Tris, 150 mM KCl, 5% glycerol, 1 mM TCEP, 0.5 mg/ml BSA, pH 8.0; kinetic fit (1:1 model) and steady-state fit (one site). A general note: In BLI a coated tip is dipped into the sample, and binding shifts an interference pattern.
Data set [2] concerns the target B1. Nature of the data set: BLI; full-length Avi-tagged Gαt on streptavidin biosensors, Ric8A1–492 proteins in solution; 26 °C, 20 mM Tris, 150 mM KCl, 5% glycerol, 1 mM TCEP, 0.5 mg/ml BSA, pH 8.0; steady-state fit.

Substitutions are numbered along the chain they refer to. Names and notes keep the numbering of the source. Values joined by “and” are separate entries in the source; they are usually repeats but may differ in a detail not shown here. Identical values can stand only once. No end group written: not given here. *: point of attachment. Biotin = O=C1N[C@H]2[C@H](CS[C@H]2CCCCC(=O)*)N1

One may read the stoichiometry N as the number of molecules, sites or subunits per partner or assembly. For B1, the “fold lower affinity than to Gαt333–350” value with Gαs363–380 was around 18 fold. In addition, the “stoichiometry N” value in the data set with GB1-Gαt340–350 and in the data set with MBP-Gαt327–350 was around 1 in each case. Also, in the data set with Gαt333–350, the “shift of Tm” value was around 9 °C.
One may read the Kd as the equilibrium constant for the complex coming apart. What is called koff is the rate constant with which the complex falls apart. Low readings indicate a long-lived complex, high ones a short-lived complex. One may read the kon as a measure of how fast the partners come together. A high value points to faster complex formation. As for B2, in the data set with bovine Ric8A1–492 [1], the Kd was 240 nM and 280 nM and 270 nM; the koff turned out to be 0.031 s⁻¹; the kon came to 130000 M⁻¹ s⁻¹.
B3: the binding result with bovine Ric8A1–492 [1] is recorded as “binds”.
In the case of B4, in the data set with bovine Ric8A1–492 [2], binding was put at a Kd of 24 nM. This lies in the double-digit nanomolar range.
In the case of B5, the binding result in the data set with bovine Ric8A1–492 [1] was “binds”.
Take B6: in the data set with bovine Ric8A1–492 [2], the Kd stood at 2300 nM.
